Results published in article PMC6321638 (2018).

Biological target: ALG-2 delta3-23 (Homo sapiens, UniProt O75340, Ca2+)
Assay: ITC

Sequence of ALG-2 delta3-23 (O75340 3-23, stated change not applied): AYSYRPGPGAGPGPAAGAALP

Kd: 32.4 nM
B1: SOUL (protein)
chain: AEPLQPDPGAAEDAAAQAVETPGWKAPEDAGPQPGSYEIRHYGPAKWVSTSVESMDWDSAIQTGFTKLNSYIQGKNEKEMKIKMTAPVTSYVEPGSGPFSESTITISLYIPSEQQFDPPRPLESDVFIEDRAEMTVFVRSFDGFSSAQKNQEQLLTLASILREDGKVFDEKVYYTAGYNSPVKLLNRNNEVWLIQKNEPTKENE
